B1: Brassica napus LPAAT (BnLPAAT, RAT1), SEQ ID No 5 (Brassica napus) (protein)
chain: MAMAAAVIVPLGILFFISGLVVNLLQAVCYVLVRPLSKNTYRKINRVVAETLWLELVWIVDWWAGVKIQVFADDETFNRMGKEHALVVCNHRSDIDWLVGWILAQRSGCLGSALAVMKKSSKFLPVIGWSMWFSEYLFLERNWAKDESTLKSGLQRLNDFPRPFWLALFVEGTRFTEAKLKAAQEYAASSELPVPRNVLIPRTKGFVSAVSNMRSFVPAIYDMTVAIPKTSPPPTMLRLFKGQPSVVHVHIKCHSMKDLPESEDEIAQWCRDQFVTKDALLDKHIAADTFAGQKEQNIGRPIKSLAVVLSWACLLTLGAMKFLHWSNLFSSWKGIALSALGLGIITLCMQILIRSSQSERSTPAKVAPAKPKDNHQSGPSSQTEVEEKQK

Key:
[1] = target: T1, Litchi sinensis LPAAT (LsLPAAT, pEW108), mutant of SEQ ID No 2 in the last C-terminal amino acids, SEQ ID No 1 (Litchi chinensis, UniProt A0A346D9Z1); assay: LPAAT assay, kinetic parameters with C18:1-CoA, E. coli JC201 microsomes; type: biochemical; settings: C18:1-CoA 0-50 μM, 10 min, 30° C., pH7.5, N = 4
T1 construct: araBAD promoter, E. coli JC201 microsomes
Excerpt: (§1) FIG. 1: Kinetics of phosphatidic acid synthesis using ^14C-C18:1-CoA on ^3H-LPA as substrates and Brassica napus (SEQ ID No 5) and Litchi microsomal (SEQ ID NO 1) LPAATs as enzymes. Duplicate measurements for one experiment are shown.
The inventors have identified one putative Lysophosphatidic Acid-Acyl Transferase from Lychee (SEQ ID No 2). They also have obtained a mutated protein derived from this protein, which is depicted as SEQ ID No 1.
Plasmids pEW108 and 117 comprising genes coding for SEQ ID No 1 and SEQ ID No 2 respectively under the control of the araBAD promoter (Guzman, L-M. et al. (1995) J Bacteriology 177: 4121-4130) were prepared and used to transform and complement an E. coli strain. The araBAD promoter is induced by arabinose, repressed by glucose and is used in the art to express polynucleotides in a controlled manner.
The following experiments were performed with the Escherichia coli JC201 mutant strain, which is temperature conditional in endogenous LPAAT activity and able to grow at 30° C. but not at 44° C. (genotype plsC, described in Coleman, 1990 J. Biol. Chem., 265 (28), 17215-21.). These bacteria were kept at −80° C. as 1 ml glycerol stocks. […] Optical density was measured at 600 nm and each flask was then cultivated for 6 hours at 30 and 44° C. respectively in order to check by optical density measurement that bacterial growth occurs at 30° C. but not at 44° C. […]

[2] = LPAAT assay with C18:1-CoA as substrate (microsomes of transformed E. coli); type: biochemical; settings: expressed in transformed E. coli mutant strains; FIG. 1
Method: The ^3H-oleoyl-lysophosphatidic acid (^3HLPA, ref. NET1100; 600 μM, 28 mCi mmol^−1) and ^14C-Oleoyl-CoA (^14CC18:1-CoA, ref. NET651A; 300 μM, 11 mCi mmol^−1) radio-labeled substrates were purchased from Perkin Elmer. Assays were carried out in a final volume of 300 μl and contained Tris/HCl (100 mM, pH7.5), Triton X-100 (0.01% w/v), BSA (1 mg/ml), ascorbic acid (10 mM), EDTA (2 mM), 100 μl LPA and 50 μl acyl-CoA. The reaction was started by the addition of 30 μl of microsomes, and conducted in a glass vial placed in a Eppendorf Thermomixer-compact apparatus (30° C., 350 rpm). The reaction was stopped after incubation (from 0 to 120 min) by addition of 720 μl of chloroform/methanol (1:1). […]
(§2) Radioactivity measurement was performed in 10 mL Ultimagold (ref. 6013329, Perkin Elmer) using a liquid scintillation analyzer (Tri-Carb 2100TR, Packard) for determination of ^3H and ^14C separately.
A first LPAAT assay was performed as described above in order to determine optimal LPAAT activity using ^14CC18:1-CoA as substrate: • Effect of incubation time was tested for 0, 1, 3, 5, 10, 30, 60 and 120 min with 50 μM ^14CC18:1-CoA at 30° C. • In order to determine LPAAT kinetic parameters, the effect of C18:1-CoA concentration was tested as described above. […] For all experimental conditions, the mean of 2 values is calculated. […]

[3] = Competitive LPAAT assay using C18:1-CoA and C19CA-CoA; type: biochemical
Method: The ^3H-oleoyl-lysophosphatidic acid (^3HLPA, ref. NET1100; 600 μM, 28 mCi mmol^−1) and ^14C-Oleoyl-CoA (^14CC18:1-CoA, ref. NET651A; 300 μM, 11 mCi mmol^−1) radio-labeled substrates were purchased from Perkin Elmer. Assays were carried out in a final volume of 300 μl and contained Tris/HCl (100 mM, pH7.5), Triton X-100 (0.01% w/v), BSA (1 mg/ml), ascorbic acid (10 mM), EDTA (2 mM), 100 μl LPA and 50 μl acyl-CoA. The reaction was started by the addition of 30 μl of microsomes, and conducted in a glass vial placed in a Eppendorf Thermomixer-compact apparatus (30° C., 350 rpm). The reaction was stopped after incubation (from 0 to 120 min) by addition of 720 μl of chloroform/methanol (1:1). To separate the phases, 280 μl of 1M KCl in 0.2 M H3PO4 were added and the whole mixture was vortexed for 10 s before centrifugation at 1300 g, 5 min at room temperature. The upper aqueous phase was discarded and 2×25 μl of the remaining organic phase was spotted on to silica gel 60 ÅF254 TLC plates (ref. 1.05715, Merck) and developed in chloroform/methanol/NH4OH/water (65:25:0.9:3). The phosphatidic acid spot was visualized by iodine revelation and collected for scintillation counting.
as §2
[…] For all experimental conditions, data are derived from three experiments with 4 replicates each.
LPAAT selectivity for the two substrates is calculated as follows:
Selectivity for C18:1-CoA: S^C18:1-CoA=^14C/^3H
Selectivity for C19CA-CoA: S^C19:1CA-CoA=(^3H—^14C)/^3H
in which, ^3H and ^14C are the molar quantity of produced PA and the molar quantity of ^14C18:1 incorporated into this PA. These molar quantities are calculated from the corresponding ^3H and ^14C radioactivity levels measured in the phosphatidic acid spots scraped from TLC plates. Selectivity is expressed as the fraction of the specific fatty acid incorporated out of the total incorporated at the sn-2 position.

[4] = substrate: CCCCCCCC/C=C\CCCCCCCC(=O)SCCNC(=O)CCNC(=O)[C@H](O)C(C)(C)COP(=O)(O)OP(=O)(O)OC[C@H]1O[C@@H](n2cnc3c(N)ncnc32)[C@H](O)[C@@H]1OP(=O)(O)O; assay: LPAAT assay, kinetic parameters with C18:1-CoA, E. coli JC201 microsomes; type: biochemical, Brassica napus; settings: other: C18:1-CoA 0-50 μM, 10 min, 30° C., pH7.5, N = 3, pH 7.5
Method: as §1
The following experiments were performed with the Escherichia coli JC201 mutant strain, which is temperature conditional in endogenous LPAAT activity and able to grow at 30° C. but not at 44° C. (genotype plsC, described in Coleman, 1990 J. Biol. Chem., 265 (28), 17215-21.). These bacteria were kept at −80° C. as 1 ml glycerol stocks. For E. coli JC201 transformation, one glycerol stock was diluted in 15 mL of Luria-Bertani (ref. L3022, Sigma) liquid medium and cultivated overnight at 30° C. Then, 1 mL was used to inoculate flasks containing 15 mL of fresh liquid LB medium. Optical density was measured at 600 nm and each flask was then cultivated for 6 hours at 30 and 44° C. respectively in order to check by optical density measurement that bacterial growth occurs at 30° C. but not at 44° C. One of the cultures obtained at 30° C. was then centrifuged at 4500 g/4° C. for 10 min. Supernatant was discarded and the pellet was kept on ice for 2 hours. The pellet was washed three time with 15 mL sterile distilled water and then twice with 15 mL distilled sterile water containing 10% (weight/volume) glycerol (centrifugation condition: 4500 g/4° C./10 min). […]

T1 sequence (A0A346D9Z1 entry or part of it, change not shown): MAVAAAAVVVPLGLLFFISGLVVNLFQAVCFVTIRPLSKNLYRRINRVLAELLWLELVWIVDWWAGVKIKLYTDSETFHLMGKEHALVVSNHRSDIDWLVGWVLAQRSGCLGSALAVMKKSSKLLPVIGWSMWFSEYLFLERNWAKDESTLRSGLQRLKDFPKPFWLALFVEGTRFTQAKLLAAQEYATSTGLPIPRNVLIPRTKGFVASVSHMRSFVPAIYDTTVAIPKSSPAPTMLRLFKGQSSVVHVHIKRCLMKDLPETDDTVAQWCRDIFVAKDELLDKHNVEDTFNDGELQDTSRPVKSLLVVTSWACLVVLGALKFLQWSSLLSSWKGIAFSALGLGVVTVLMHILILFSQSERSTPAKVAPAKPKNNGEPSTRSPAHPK

Row | Molecule | Km [1] [µM] | Vmax ([1]; apparent Vmax, per mg total protein) | esterification of 14C-C18:1-CoA on 3H-LPA (presence of PA in lipid fraction) [2] | use of C19CA-CoA as substrate ([3]; competitive assays using C19CA-CoA and C18:1-CoA) | selectivity for C19CA-CoA (in words) ([3]; very little incorporation of 19:0CA up to 50 μM) | Km [4] [µM] | Vmax [4] [µmol/min/mg]
1 | CCCCCCCC/C=C\CCCCCCCC(=O)SCCNC(=O)CCNC(=O)[C@H](O)C(C)(C)COP(=O)(O)OP(=O)(O)OC[C@H]1O[C@@H](n2cnc3c(N)ncnc32)[C@H](O)[C@@H]1OP(=O)(O)O [C18:1-CoA, Oleoyl-CoA] | 7.3 ± 4.1 | 1557 ± 616 pmol · mg prot^−1 · min^−1 | – | – | – | – | –
2 | B1 | – | – | fully functional | can use C19CA-CoA as substrate | very low selectivity | 10.6 ± 6.7 | 0.0056

— patent publication US20090271892A1, “LYSOPHOSPHATIDIC ACID ACYLTRANSFERASE GENES AND USES THEREOF” (priority 2006, published 2009)
